Results on 13 molecules are retold here after article PMC8699515, “Native llama Nanobody Library Panning Performed by Phage and Yeast Display Provides Binders Suitable for C-Reactive Protein Detection” (Biosensors, 2021).

To fix the notation:
B1: C-reactive protein (CRP) from human pleural fluid (natural protein, UniProt P02741 19-224, looked up)
chain: QTDMSRKAFVFPKESDTSYVSLKAPLTKPLKAFTVCLHFYTELSSTRGYSIFSYATKRQDNEILIFWSKDIGYSFTVGGSEILFEVPEVTVAPVHICTSWESASGIVEFWVDGKPRVRKSLKKGYTVGAEASIILGQEQDSFGGNFEGSQSLVGDIGNVNMWDFVLSPDEINTIYLGGPFSPNVLNWRALKYEVQGEVFTKPQLWP
notes: C-reactive protein, human, purified from pleural fluid; source: bought: LEE Biosolutions (from human pleural fluid)
B2: anti-CRP nanobody E12 fused to 6xHis-SpyTag (VHH)
VHH: EVQLQASGGGLVQAGGSLRLSCAASRRPSSFKVMGWYRQAPGKQRELVARITSGGSTDYADSVKGRFTISRDNAKNTVYLQMNSLEPEDTAVYYCNAYRWGRDNWGQGTQVTVSS
notes: pET14-derived vector; In the biosensor it was held by SpyCatcher attached to the gold electrode
B3: anti-CRP nanobody A12 fused to 6xHis-SpyTag (VHH)
VHH: EVQLQASGGGLVQAGGSLGLSCAASTRAFSTYAMGWFRQVPGKEREFVAAISSGGSTVYADSVKGRFTISRDNAKNTVYLQMNNLRPEDTAVYYCAARQGIVVRSPTRMDYWGQGTQVTVSS
notes: pET14-derived vector
B4: anti-CRP nanobody A6 fused to 6xHis-SpyTag (VHH)
VHH: EVQLQASGGGLVRPGGSLRLSCAVSGGTLSNYAVGWFRRAPGNQRELVATFTSGGTTLYADSVKGRFTISRDNLKNTVYLQMNSLKPEDTAVYYCAAKPGRASSQATDYDAWGQGTQVTVSS
notes: pET14-derived vector
B5: anti-CRP nanobody H7 fused to 6xHis-SpyTag (VHH)
VHH: EVQLQASGGGLVQAGGSLRLSCAASGRTFSSYATGWYRQAPGKERELVAAISSGGSTYYADSVKGRFTISRDNAKNTVYLQMNSLKAEDTAVYYCAGGRRVGVLIGNEYDYWGQGTLVTVSS
notes: pET14-derived vector
B6: anti-CRP nanobody B9 fused to 6xHis-SpyTag (VHH)
VHH: EVQLQASGGGSVQAGGSLRLSCATSGIIFRNNIMTWYRQAPGKNRELVATITTGGSTNYSDSVKGRFTISRDNTKNTVYLQMSNLKPDDTGVYYCNARRNRFLTGSYGQGTQVTVSS
notes: pET14-derived vector
B7: anti-CRP nanobody E12 displayed on phage (VHH)
VHH: B2 VHH
notes: source: E. coli TG1 with M13K07 helper phage, phages in culture supernatant
B8: anti-CRP nanobody B9 displayed on phage (VHH)
VHH: B6 VHH
notes: as for B7
B9: anti-CRP nanobody A10 displayed on phage (VHH)
VHH: EVQLQASGGGLVQAGGSLRLSCVASRSILSLAVMGWYRQAPGKERELVASITSGGNTNYADVVKGRFIISRDNAKNTVNLQMNTLRPEDTAVYYCSAKSILTGPNHWRQETQVTVSS
notes: as for B7
B10: anti-CRP nanobody C10 displayed on phage (VHH)
VHH: EVQLQASGGGLVQAGGSLRLSCAASGRTFSNYGMGWFRQAPGKEREFVAAITSGGSTYYRDSVKGRFTISRDNAKNTVYLQMNSLKPDDTAVYYCAASRGVTAIWGSSYDYWGQRTLVTVSS
notes: C10 gave no soluble 6xHis-SpyTag construct; source: E. coli TG1 with M13K07 helper phage, phages in culture supernatant
B11: anti-CRP nanobody C1 displayed on phage (VHH)
VHH: DVQLQASGGGLVQPGGSLRLSCRAPRMVFRRNVMGWFRQAPGKQRELVAYITNDGVTKYTDSVKGRFTISRDNAENTMYLQMNNLKTEDTAVYYCNVRRVLGIAGYWGQGTQVTVSS
notes: as for B7
B12: anti-CRP nanobody A12 displayed on phage (VHH)
VHH: B3 VHH
notes: as for B7
B13: anti-CRP nanobody A6 displayed on phage (VHH)
VHH: B4 VHH
notes: as for B7

T2 sequence (P02769 25-607): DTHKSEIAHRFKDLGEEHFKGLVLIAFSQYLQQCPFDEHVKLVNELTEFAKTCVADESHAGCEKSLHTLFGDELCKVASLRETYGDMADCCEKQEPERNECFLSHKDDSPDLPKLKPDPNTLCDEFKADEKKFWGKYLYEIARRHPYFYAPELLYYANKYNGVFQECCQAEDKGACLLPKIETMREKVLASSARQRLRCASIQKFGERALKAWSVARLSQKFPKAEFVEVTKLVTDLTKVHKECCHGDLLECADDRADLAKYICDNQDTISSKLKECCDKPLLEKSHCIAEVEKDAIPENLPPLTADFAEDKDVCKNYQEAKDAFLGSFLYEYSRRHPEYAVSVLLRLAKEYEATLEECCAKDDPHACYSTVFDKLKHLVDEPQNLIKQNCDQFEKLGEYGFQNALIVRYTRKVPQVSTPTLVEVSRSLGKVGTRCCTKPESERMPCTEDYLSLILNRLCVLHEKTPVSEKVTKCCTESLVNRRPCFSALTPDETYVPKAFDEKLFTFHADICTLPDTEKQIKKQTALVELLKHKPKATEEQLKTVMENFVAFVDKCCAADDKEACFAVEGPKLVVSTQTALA

The target in one test is T1, E12 fused to mouse Fc (E12-mFc) (llama).
T1 construct: as the VHH of m7
Description: ELISA; short protocol (coating 2 h at 37 C) with CRP 1 to 10 ug/mL; 25 ug/mL E12-mFc; anti-mouse HRP, TMB; triplicate. To be noted: both partners purified. In general terms: An ELISA detects its analyte on a solid surface through an enzyme-linked reagent.
On to B1, for which the binding result is recorded as “binds”.

In another test the target is B1. Description: BLI; Octet K2; CRP (25 nM) in PBS immobilised on aminopropylsilane (APS) tips, blocked with 1% BSA/PBS; nanobodies 10-1200 nM in 0.1% BSA/PBS; 30 C; 1:1 model, global fit. To be noted: both partners purified.
Usually Kd stands for the equilibrium constant for the complex coming apart. On to B2, for which the Kd turned out to be 13 nM. On the same count and under the same terms, in the case of B3 it was 122 nM; in that of B4, 51 nM; in that of B5, 154 nM.

Another test concerns the target T2, BSA (Bos taurus, UniProt P02769).
T2 construct: BSA (serum albumin), used as negative control
Description: electrochemical impedance spectroscopy; gold electrode carrying E12-SpyTag held by SpyCatcher; CRP or BSA in solution; room temperature, 0.1 M KNO3 with 5 mM K3[Fe(CN)6]/K4[Fe(CN)6]; triplicate. To be noted: both partners purified.
Take B2: the binding result is given as “no binding (tested: 1 μg/mL)”.

The target in a further test is B1. Description: ELISA; CRP (0.5 ug/well) or BSA coated 2 h at 37 C; purified nanobodies 0.5 ug/well (A6, A12, B9, H7) or 0.1 ug/well (E12) in 2% BSA in PBS, 2 h at room temperature; anti-His and anti-mouse HRP, TMB. To be noted: both partners purified.
As to B2, the ELISA signal was 2.6. Still for that read-out and setting: in the case of B6 it was 2.28; in that of B3, 0.974; in that of B4, 0.231. On to B5, for which the ELISA signal turned out to be 0.904.

For a further test, the target named is B1. Nature of the test: ELISA; CRP (0.5 ug/well) or BSA coated overnight at 4 C; purified nanobodies 0.5 ug/well (A6, A12, B9, H7) or 0.1 ug/well (E12) in 2% BSA in PBS, 2 h at room temperature; anti-His and anti-mouse HRP, TMB. To be noted: both partners purified.
As to B2, the ELISA signal amounted to 2.84. The molecule B6 came in with an ELISA signal of 1.56. The same measure, in the same setting: in the case of B3 it was 1.23; in that of B4, 0.476.

With B5, the ELISA signal stood at 1.47.

The target of a further test is B1. Nature of the test: ELISA; phage screening ELISA: CRP 0.25 ug/well coated overnight at 4 C on MaxiSorp, saturated with 3% BSA-PBS; phages in culture supernatant (100 uL, not normalised) 2 h at room temperature; anti-M13 HRP, TMB, absorbance at 450 nm; ratio of the CRP signal to the BSA control, triplicates. Conditions: one partner purified.
With B7, the “Screening ELISA (CRP/BSA Signal)” value was found to be 13.3. On the same count and under the same terms, with B8 the figure was 14.6. Take B9: the “Screening ELISA (CRP/BSA Signal)” value was 12.3.

On to B10, for which the “Screening ELISA (CRP/BSA Signal)” value turned out to be 14.6. For the molecule B11, the “Screening ELISA (CRP/BSA Signal)” value is 12.5.

Regarding B12, the “Screening ELISA (CRP/BSA Signal)” value was 15.5.

With B13, the “Screening ELISA (CRP/BSA Signal)” value is 11.8.
